From the supplement of paper PMC7877785 come the findings set out here.

The nature of this data set: self-splicing fitness, log relative to wild type (ln ratio); higher = more splicing; Tetrahymena group I intron in knt gene, E. coli kanamycin selection, DiMSum; sequences stand for … in CUCUCU…GGAGGGAAAAGUUAUCAGGCAUGCACCUGGUAGCUAGUCUUUAAACCAAUAGAUUGCAUCGGUUUAAAAGGCAAGACCGUCAAAUUGCGGGAAAGGGGUCAACAGCCGUUCAGUACCAAGUCUCAGGGGAAACUUUGAGAUGGCCUUGCAAAGGGUAUGGUAAUAAGCUGACGGACAUGGUCCUAACCACGCAGCCAAGUCCUAAGUCAACAGAUCUUCUGUUGAUAUGGAUGCAGUUCACAGACUAAAUGUCGGUCGGGGAAGAUGUAUUCUUCUCAUAAGAUAUAGUCGGACCUCUCCUUAAUGGGAGCUAGCGGAUGAAGUGAUGCAACACUGGAGCCGCUGGGAACUAAUUUGUAUGCGAAAGUAUAUUGAUUAGUUUUGGAGUACUCGUGGUCG
In outline:
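Colonies from six replicate transformations of E. coli BL21(DE3) were pooled and amplicon-sequenced on an Illumina HiSeq 2500. The library placed an intron with all eight P1ex-region nucleotides randomised inside the knt kanamycin-resistance gene on pET-22b(+), and cells grew overnight at 37°C or 30°C on LB agar with or without 25 μg/mL kanamycin (plus 100 μg/mL carbenicillin, 50 μM IPTG, 0.2% rhamnose). Fitness is the DiMSum error-weighted combination of wild-type-normalised replicate fold changes, kanamycin versus none.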

± gives the uncertainty stated by the source.

Regarding GGAAAGCAAUAUUACGUGGC, the “self-splicing fitness (ln)” value runs as follows: (30 °C) -2.85 ± 0.38; (37 °C) -2.46 ± 0.34.

With UGCGAGCAAUAUUACGAAGC, the “self-splicing fitness (ln)” value (37 °C) is -2.3 ± 0.42.

On to UUGGAGCAAUAUUACGAUAG, for which the “self-splicing fitness (ln)” value (30 °C) was -2.56 ± 0.37.

As for AAUGAGCAAUAUUACGCCGC, the “self-splicing fitness (ln)” value (37 °C) was -1.7 ± 0.42.

In the case of UGCUAGCAAUAUUACGCCGG, the “self-splicing fitness (ln)” value (30 °C) was -0.985 ± 0.22 and the “self-splicing fitness (ln)” value (37 °C) was -1.88 ± 0.5.

Regarding CAAUAGCAAUAUUACGAGCA, the “self-splicing fitness (ln)” value by setting is: (30 °C) -2.05 ± 0.34; (37 °C) -0.415 ± 0.3.

Consider GCGAAGCAAUAUUACGUAUG, for which the “self-splicing fitness (ln)” value runs as follows: (30 °C) -4.39 ± 0.26; (37 °C) -2.81 ± 0.16.

As to GCUCAGCAAUAUUACGCGUU, the “self-splicing fitness (ln)” value (30 °C) was -0.447 ± 0.066 and the “self-splicing fitness (ln)” value (37 °C) was found to be 0.599 ± 0.084.

Consider CUGGAGCAAUAUUACGGAGU, for which the “self-splicing fitness (ln)” value (30 °C) is -2.37 ± 0.22.

On to CGGCAGCAAUAUUACGCGGU, for which the “self-splicing fitness (ln)” value (30 °C) was -4.26 ± 0.25 and the “self-splicing fitness (ln)” value (37 °C) is -3.33 ± 0.19.

For the sequence AUUAAGCAAUAUUACGGAAG, the “self-splicing fitness (ln)” value is -3.07 ± 0.17 (30 °C) and -1.29 ± 0.2 (37 °C).

As for AAUGAGCAAUAUUACGCCAG, the “self-splicing fitness (ln)” value is -3.99 ± 0.3 (30 °C) and -2.87 ± 0.47 (37 °C).

CCAUAGCAAUAUUACGGACU: the “self-splicing fitness (ln)” value was -3.84 ± 0.33 (30 °C) and -1.85 ± 0.29 (37 °C).

Consider UGCCAGCAAUAUUACGUCGU, for which the “self-splicing fitness (ln)” value by setting is: (30 °C) -2.68 ± 0.14; (37 °C) -1.9 ± 0.15.

Regarding UGCAAGCAAUAUUACGACGC, the “self-splicing fitness (ln)” value by setting is: (30 °C) -1.44 ± 0.4; (37 °C) -0.865 ± 0.24.

For CCCUAGCAAUAUUACGGUGU, the “self-splicing fitness (ln)” value runs as follows: (30 °C) -3.05 ± 0.098; (37 °C) -2.19 ± 0.11.

For the sequence UCCCAGCAAUAUUACGCGAU, the “self-splicing fitness (ln)” value (30 °C) was -3.29 ± 0.21 and the “self-splicing fitness (ln)” value (37 °C) is -2.64 ± 0.21.

Consider GACUAGCAAUAUUACGGAUG, for which the “self-splicing fitness (ln)” value is, setting by setting: (30 °C) -2.9 ± 0.11; (37 °C) -1.29 ± 0.1.

On to UUUAAGCAAUAUUACGGAUC, for which, under “30 °C”, the “self-splicing fitness (ln)” value is -1.33 ± 0.43.

For GAGGAGCAAUAUUACGGGGG, the “self-splicing fitness (ln)” value by setting is: (30 °C) -3.09 ± 0.27; (37 °C) -3.13 ± 0.47.

For the sequence UCUGAGCAAUAUUACGUUAC, the “self-splicing fitness (ln)” value is -3.38 ± 0.2 (30 °C) and -2.33 ± 0.22 (37 °C).

As to UGGUAGCAAUAUUACGGACA, the “self-splicing fitness (ln)” value runs as follows: (30 °C) -0.879 ± 0.12; (37 °C) 0.135 ± 0.16.

Take UCUGAGCAAUAUUACGUGCU: the “self-splicing fitness (ln)” value (30 °C) is -3.52 ± 0.4.

In the case of CCGUAGCAAUAUUACGCCCA, under “37 °C”, the “self-splicing fitness (ln)” value is -2.54 ± 0.48.

For the sequence UCGGAGCAAUAUUACGAGGG, the “self-splicing fitness (ln)” value (30 °C) is -3.58 ± 0.21 and the “self-splicing fitness (ln)” value (37 °C) was -2.94 ± 0.44.

Turning to GGACAGCAAUAUUACGUUUC, the “self-splicing fitness (ln)” value runs as follows: (30 °C) -3.16 ± 0.28; (37 °C) -1.82 ± 0.32.

As for ACAAAGCAAUAUUACGAGCC, the “self-splicing fitness (ln)” value (37 °C) is -1.97 ± 0.25.

For the sequence GAGGAGCAAUAUUACGAGCA, the “self-splicing fitness (ln)” value (30 °C) was -3.52 ± 0.48 and the “self-splicing fitness (ln)” value (37 °C) was -2.4 ± 0.46.

With UGAAAGCAAUAUUACGUCUC, the “self-splicing fitness (ln)” value runs as follows: (30 °C) -3.36 ± 0.24; (37 °C) -2.18 ± 0.23.

For the sequence CGACAGCAAUAUUACGUCUC, the “self-splicing fitness (ln)” value by setting is: (30 °C) -1.98 ± 0.13; (37 °C) -2.13 ± 0.2.

As for GUCAAGCAAUAUUACGGCAA, the “self-splicing fitness (ln)” value reads like this: (30 °C) -2.06 ± 0.15; (37 °C) -1.01 ± 0.094.

Turning to GGGCAGCAAUAUUACGGGUC, the “self-splicing fitness (ln)” value is -2.9 ± 0.25 (30 °C) and -2.02 ± 0.23 (37 °C).

Take UAUUAGCAAUAUUACGCACA: the “self-splicing fitness (ln)” value is, setting by setting: (30 °C) -0.485 ± 0.13; (37 °C) -0.0783 ± 0.23.

As for AUGAAGCAAUAUUACGAAGC, the “self-splicing fitness (ln)” value is, setting by setting: (30 °C) -3.46 ± 0.18; (37 °C) -1.89 ± 0.19.

With CCACAGCAAUAUUACGCACC, the “self-splicing fitness (ln)” value (30 °C) was -2.62 ± 0.28 and the “self-splicing fitness (ln)” value (37 °C) was -1.71 ± 0.28.

Turning to GUAAAGCAAUAUUACGGUUU, the “self-splicing fitness (ln)” value (30 °C) was -0.83 ± 0.055 and the “self-splicing fitness (ln)” value (37 °C) amounted to 0.0852 ± 0.077.

As to GGCUAGCAAUAUUACGCGAU, the “self-splicing fitness (ln)” value runs as follows: (30 °C) -1.74 ± 0.19; (37 °C) -0.776 ± 0.2.

As for CACUAGCAAUAUUACGUACA, the “self-splicing fitness (ln)” value (30 °C) is -2.35 ± 0.21 and the “self-splicing fitness (ln)” value (37 °C) is -1.29 ± 0.4.

In the case of CUAUAGCAAUAUUACGAGGA, the “self-splicing fitness (ln)” value by setting is: (30 °C) -3.62 ± 0.41; (37 °C) -1.73 ± 0.31.

Take UGUCAGCAAUAUUACGCUCU: the “self-splicing fitness (ln)” value is -0.884 ± 0.15 (30 °C) and -0.226 ± 0.13 (37 °C).
